Assay results reported in paper PMC11192767, “A cocktail nanovaccine targeting key entry glycoproteins elicits high neutralizing antibody levels against EBV infection” (Nature Communications, 2024).

Target: the molecule itself
Assay: native gel or EMSA; gB before encapsulation and gB released from nanoparticles, analysed under native non-reducing conditions (Fig. S5A)

B1: EBV gB ectodomain (residues 22 to 672, fusion-loop residues replaced with HSV-1 residues), 6x His tag (domain or fragment)
chain: AQTPEQPAPPATTVQPTATRQQTSFPFRVCELSSHGDLFRFSSDIQCPSFGTRENHTEGLLMVFKDNIIPYSFKVRSYTKIVTNILIYNGHRADSVTNRHEEKFSVDSYETDQMDTIYQCYNAVKMTKDGLTRVYVDRDGVNITVNLKPTGGLANGVRRYASQTELYDAPGRVEATYRTRTTVNCLITDMMAKSNSPFDFFVTTTGQTVEMSPFYDGKNKETFHERADSFHVRTNYKIVDYDNRGTNPQGERRAFLDKGTYTLSWKLENRTAYCPLQHWQTFDSTIATETGKSIHFVTDEGTSSFVTNTTVGIELPDAFKCIEEQVNKTMHEKYEAVQDRYTKGQEAITYFITSGGLLLAWLPLTPRSLATVKNLTELTTPTSSPPSSPSPPAPSAARGSTPAAVLRRRRRDAGNATTPVPPTAPGKSLGTLNNPATVQIQFAYDSLRRQINRMLGDLARAWCLEQKRQNMVLRELTKINPTTVMSSIYGKAVAAKRLGDVISVSQCVPVNQATVTLRKSMRVPGSETMCYSRPLVSFSFINDTKTYEGQLGTDNEIFLTKKMTEVCQATSQYYFQSGNEIHVYNDYHHFKTIELDGIATLQTFISLNTSLIENIDFASLELYSRDEQRASNVFDLEGIFREYNFQAQNIA
notes: Epstein-Barr virus glycoprotein B (gB), ectodomain residues 22 to 672, PCR-amplified from the EBV M81 strain (GenBank KF373730.1); WY112-113 and WLIW193-196 replaced with HSV-1 residues HR177-178 and RVEA258-261; Tested both before encapsulation and after release from the nanoparticles; also called glycoprotein B; fusogen gB; source: 293F cells, transiently transfected (pCDNA3.1-gB), purified …
- stoichiometry N: 3
